The nanobody polyreactivity screen of Harvey et al. (2022)

Test: yeast display, Sf9 membrane polyspecificity reagent, FACS + sequencing; frameworks hold sequencing errors
In short: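 A synthetic nanobody library was expressed on Saccharomyces cerevisiae BJ5465 by galactose induction for 36–48 hours. The library was stained for 1 hour at 4 °C with 10% biotinylated, detergent-solubilized Sf9 membrane reagent and enriched with streptavidin microbeads before FACS. Low and high (top ~1%) gates were set on anti-HA fluorescence for expression and streptavidin fluorescence for reagent binding, and each polyreactivity label reflects the gate of origin.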

Sequence	polyreactivity (PSR sort gate)
QVQLVESGGGLVQAGGSLRLSCAASGITLYFYAMGWYRQAPWKERELVAAISRGGRTYYADSVKGRFTISRDNAKNTVYLQMNSLKPEDTAVYYCAARYTSEYSAFDYWGQGTQVTVSS	low polyreactivity
QVQLVESGGGLVQAGGSLRLSCAASGITLYGNVMGWYRQAPGKERELVAAISGGSTFYADSVKGRFTISRDNAKNTVYLQMNSLKPEDTAVYYCSAEGYGYGSNVPYYYWGQGTQVTVSS	low polyreactivity
QVQLVESGGGLVQAGGSLRLSCAASGITLYRYAMGCYRQAPGKERELVADISSGGGTTYYADSVKGRFTISRDNAKNTVYLQMNSLKPEDTAVYYCAADYGFRYPLYDYWGQGTQVTVSS	low polyreactivity
QVQLVESGGGLVQAGGSLRLSCAASGITLYRYAMGWYRQAPGKERELVADISSGGGTTYYADSVKGRFTISRDNAKNTVYLQMNSLKPEDTAVYYCAADYGFRYPLYDYWGQGTQVTVSS	low polyreactivity
QVQLVESGGGLVQAGGSLRLSCAASGITLYWYAMGWYRPAPGKERELVAAISRRGGTTYYADSVKGRFTISRDNAKNTVYLQMNSLKPEDTAVYYCAKAPDTQTSWSRQEGNYWGQGTQVTVSS	low polyreactivity
QVQLVESGGGLVQAGGSLRLSCAASGITSDQNAMGWYRQAPGKERELVAAISWSGGSTYYADSVKGRFTISRDNAKNTVYLQMNSLKPEDTAVYYCAADIYTAYYEFDYWGQGTQVTVSS	low polyreactivity
QVQLVESGGGLVQAGGSLRLSCAASGITSGNNALGWYRQAPGKERELVAALSWTGGSTYYADSVKGRFTISRDNAKNTVYLQMNSLKPEDTAVYYCAAKGLRYRDIDYDYWGQGTQVTVSS	low polyreactivity
QVQLVESGGGLVQAGGSLRLSCAASGITSRFNAMGWYRQAPGKERELVAAISSRGTSTYYADSVKGRFTISRDNAKNTVYLQMNTLKPEDTAVYYCAVSQRAPKFPGDYWGQGPQVTVSS	high polyreactivity
QVQLVESGGGLVQAGGSLRLSCAASGITSRQYAMGWYRQAPGKERELVAAISFSGGRTYYADSVKGRFTISRDNAKNTVYLQMNSLKPEVTAVYYCATRNRYSPRDYWGQGTQVTVSS	high polyreactivity
QVQLVESGGGLVQAGGSLRLSCAASGITSTVYAMGWYRQAPGKERELVAGISWSTSSTYYADSVKGRFTISRDNAKNTVYVQMNSLKPEDTAVYYCAKAGAYKYGYWGQGTQVTVSS	high polyreactivity
QVQLVESGGGLVQAGGSLRLSCAASGITSYGYAMGWYIQAPGKERELVAAISRSGGTTYYADSVKGRFTISRDNAKNTVYLQMNSLKPEDTAVYYCALGKSHRGGGVSKFNYWGQGTQVTVSS	low polyreactivity
QVQLVESGGGLVQAGGSLRLSCAASGITSYYYTMGWYRQAPGKERELVAAITSGGSTYYADSVKGRFTISRDNAKNTVYLQMNSLKPEDNAVYYCTADNPRYRGSKYGPYDDYNYWGQGTQVTVSS	low polyreactivity
QVQLVESGGGLVQAGGSLRLSCAASGITVFENAMGWYRQAPGKERELVAAISYSGGSTYYADSVKGRFTISRDNAKNTVYLQMNSLKPEDTAVYYCAADWYYFLYIRNRWGYGYWGQGTQVTVSS	high polyreactivity
QVQLVESGGGLVQAGGSLRLSCAASGITVGYYAMGWYRLAPGKERELVAAITRGGGSTYYADSVKGRFTISRDNAKYTVYVQKNSLKPEDTAVYYCAAKTSGPGAGHDYWGQGTQVTVSS	high polyreactivity
QVQLVESGGGLVQAGGSLRLSCAASGITYWKYAMGWYRQAPGKERELVAAISKSGGSTYYADSVKGRFTISRDNAKNTVYLQMNSLKPEDTAVYYCAAVPGPASKYGYWGQGTQVTVSS	high polyreactivity
QVQLVESGGGLVQAGGSLRLSCAASGKTFRYNAMGWYRQAPGKERELVAAISRRGGSTYYADSVKGRFTISRDNAKNTVYLQMNSLKPEDTAVYYCNAGRTAENEYWGQGTQVTVSS	high polyreactivity
QVQLVESGGGLVQAGGSLRLSCAASGLIFAGYTMGWYRQAPGKERELVAAISISGGSTYYADSVKGRFTISRDNAKNTVYLQMNSLKPEDTAVYYCASKRRSWPPTYYYWGQGTQVTVSS	high polyreactivity
QVQLVESGGGLVQAGGSLRLSCAASGLIFAIYAMGWYRQAPGNERELVAAIRWSGASTYADSVKGRFTISRDNAKNTVYLQMNSLKPEDTAVYYCAADDLLDYDYWGQGTQVTVSS	low polyreactivity
QVQLVESGGGLVQAGGSLRLSCAASGLIFARNAMGWYRQAPGKERELVAAITYSGSRTYYADSVKGRFTISRDNAKNTVYLQMNSLKPEDTAVYYCAARHRYSAVTEYNYWGQGTQVTVSS	high polyreactivity
QVQLVESGGGLVQAGGSLRLSCAASGLIFATYAMRWYRQAPGKERELVADITTTGSTYYADSVKGRFTISRDNAKNTVYLQMNSLKPEDTAVYYCAAYGRWLTWYDFDYWGQGTQVTVSS	high polyreactivity
QVQLVESGGGLVQAGGSLRLSCAASGLIFAYYAMGWYRQAPGKERELVAAISWSGDNTYYADSVKGRFTISRDNAKNTVYLEMNSLKPEDTAVYYCNVDTYGAWSWYYGLHHMDYWGQGTQVTVSS	low polyreactivity
QVQLVESGGGLVQAGGSLRLSCAASGLIFAYYTMGWYRQAPGKERELVAAITSGVRTYYADSVKGRFTISRDNAKNTVYLQMNSLKPEDTAVYYCAAGLSGSTQATIFWGYYYWGQGTQVTVSS	low polyreactivity

Sequence	polyreactivity (PSR sort gate)
QVQLVESGGGLVQAGGSLRLSCAASGLIFDTYAMGWYRQAPGKEREWVADITWSGGSTYYADSVKGRFTISRDNAKNTVYLQMNSLKPEETAVYYCAADSVSLFYWDQRYPDEYDYWGQGTQVTVSS	low polyreactivity
QVQLVESGGGLVQAGGSLRLSCAASGLIFDYYAMGWYRQAPGKERELVAAISANTGRTYYADSVKGRFTISRDNAKNTVYLQMNSLKPEDTAVYYCAAYTQYDGAEFDYWGHGTQVTVSS	high polyreactivity
QVQLVESGGGLVQAGGSLRLSCAASGLIFENNAMGWYRQAPGKERELVAAITKGGGSTYYADSVKGRFTISRDNAKNTVYLQMNSLKPVDTAVYYCAKDHPWHRYWQYWYDYWGLGTQVTVSS	low polyreactivity
QVQLVESGGGLVQAGGSLRLSCAASGLIFENNAMGWYRQAPGKERELVAAITYSGGSTYYADSVKGRFTISRDNAKNTVYLQMNSLKPEDTAVYYCAAESYRRYGYDYWGQGTQVTVSS	high polyreactivity
QVQLVESGGGLVQAGGSLRLSCAASGLIFFWYTMGWYRKAPGKERELVAAIDSGGSTYYADSVKGRFTISRDNAKNTVYLQMNSLKPEDTAVYYCNADPGWGIYDDYWVQGTQVTVSS	high polyreactivity
QVQLVESGGGLVQAGGSLRLSCAASGLIFFWYTMGWYRQAPGKERELVAAISGSGTGTYYADSVKGRFTISRDNAKNTVYLQMNSLIPEDTAVYYCATDYVYRGYLMNYWGQGTQVTVSS	high polyreactivity
QVQLVESGGGLVQAGGSLRLSCAASGLIFFYLNDMGWYRQAPGKERELVATITSGTSTTYADSVKGRFTISRDNAKNTVYLQMNSLKPEDTAVYYCNATDVGIITVGYGHGGYYWGQGTQVTVSS	low polyreactivity
QVQLVESGGGLVQAGGSLRLSCAASGLIFGDYVMGWYRQAPGKERELVAAISNNGDSTYYADSVKGRFTISRDNAKNTVYLQMNSLIPEDTAVYYCNADGDRGGYVLTEHDSWGQGTQVTVSS	low polyreactivity
QVQLVESGGGLVQAGGSLRLSCAASGLIFGGTAMGWYRQAPGKERELVAAITYRTGSTYYADSVKGRFTISRDNAKNTVYLQMNSLKPEDTAVYYCAAAVSLGYPVAFYYWGQGTQVTVSS	low polyreactivity
QVQLVESGGGLVQAGGSLRLSCAASGLIFGKYAMGWYRQAPGKERELVAAITSSGGGTYYADSVKGRFTISRDNAKNTVYLQMNSLKPEDTAVYYCATGPDPKYDYWGQGTQVTVSS	high polyreactivity
QVQLVESGGGLVQAGGSLRLSCAASGLIFGNYAMGWYRQAPGKERELVAAITSTGITYYADSVKGRFTISRDNAKNTVYLQMNSLKPEDTAVYYCNADYYRHSLDYDYVGYDYWGQGTQVTVSS	low polyreactivity
QVQLVESGGGLVQAGGSLRLSCAASGLIFGRNARGWYRQAPGKERELVAVISKRGGSTYYADSVKGRFTISRDNAKNTVYLQMNSLKPADTAVYYCAADYGSTGNYWGQGTQVTVSS	high polyreactivity
QVQLVESGGGLVQAGGSLRLSCAASGLIFGRYAMGWYRQAPGKERELVAGISGSGGITYYADSVKGRFTISRDTAKNTVYLQMHILKPEDTAVYYCATAAASHKYGYWGQGTQVTVSS	low polyreactivity
QVQLVESGGGLVQAGGSLRLSCAASGLIFGRYTMGWYRQAPGKEREFVAAISRSGGSTYYADSVKGRFTISRDNAKITVYLQRNSLKPEDTAVYYCAARGSYTRPKRYGYWGQGTQVTVSS	high polyreactivity
QVQLVESGGGLVQAGGSLRLSCAASGLIFGVNAMGWYRQAPGKEMELVAAITSRGGSTYYADSVKGRFTISRDNAKNTVYLQMNSLKPEDTAVYYCAAKYAYYEPYSWRPQRTYNYWGQGTQVTVSS	high polyreactivity
QVQLVESGGGLVQAGGSLRLSCAASGLIFGVNAMGWYRQAPGKEREFVARITRSGSSTYYADSVKGRFTISRDNAKNTVYLQMNSLKPEDTAVYYCAVDLFYKYDWGQGTQVTVSS	high polyreactivity
QVQLVESGGGLVQAGGSLRLSCAASGLIFGVYAMGWYRQAPGKERELVAGISWRGSSTYYADSVKGRFTISRDNAKNTVYLQMNSLKPEDTAVYYCAAVRRPSRHAYGGTAVYYWGQGTQVTVSS	high polyreactivity
QVQLVESGGGLVQAGGSLRLSCAASGLIFGYNAMGWYRQAPGKERELVAAISRRGTSTYYADSVKGRFTISRDNAKNTVYLQMNSLKPEDTAVYYCATYGVNPPGVEEYNYWGQGTQVTVSS	high polyreactivity
QVQLVESGGGLVQAGGSLRLSCAASGLIFGYNAMGWYRQAPGKERELVASINWSTGRTRYADSVKGRFTISRDNAKNTVYLQMNSLKPEDTAVYYCAARLYNPYPYEYWGQGTQVTVSS	high polyreactivity
QVQLVESGGGLVQAGGSLRLSCAASGLIFIGYAKGWSRQAPGKERELVASIRGVGSTNYADSVKGRFTISRDNAKNTVYLQMHSLKPEDTAVYYCATSVDRALYTQTRGDYDYWGQGTQVTVSS	low polyreactivity
QVQLVESGGGLVQAGGSLRLSCAASGLIFIRYAMGWYRQAPGKERELVAAISWPGGNTYYADSVKGRFTISRDNAKNTVYLQMNSLKPEDTAVYYCAAVGTWQHRSYGYWGQGTQVTVSS	high polyreactivity
